Literature values as cited in doi:10.1101/2023.01.13.523947.
pKd: −log10 of the molar value.

System: 35I9 anti-DNA mAb (Mus musculus (NZWxNZB F1))

Substance	pKd
ssDNA (cited Kd)	6.15
dsDNA (cited Kd)	7.05
